Results from ChEMBL document CHEMBL1250451, “Mechanistic insights into a Ca2+-dependent family of alpha-mannosidases in a human gut symbiont” (Nat Chem Biol, 2010).

Assays:
Format in all cases: protein assay
[1] = substrate: OC[C@H]1O[C@H](O[C@H]2[C@@H](O)[C@H](O)[C@@H](CO)O[C@@H]2O)[C@@H](O)[C@@H](O)[C@@H]1O; assay: (§1) Activity of Bacteroides thetaiotaomicron GH92 alpha-mannosidase 3990 N601A mutant assessed as as mannose release after 16 hrs by HPLC relative to wild type enzyme
[2] = substrate: O=[N+]([O-])c1ccc(O[C@H]2O[C@H](CO)[C@@H](O)[C@H](O)[C@@H]2O)cc1; assay: as §1
[3] = substrate: OC[C@H]1O[C@H](O[C@H]2[C@@H](O)[C@H](O)[C@@H](CO)O[C@@H]2O)[C@@H](O)[C@@H](O)[C@@H]1O; assay: (§2) Ratio of Kcat to Km for Bacteroides thetaiotaomicron GH92 alpha-mannosidase 3990 N601A mutant assessed as as mannose release after 16 hrs by HPLC relative to wild type enzyme
[4] = substrate: O=[N+]([O-])c1ccc(O[C@H]2O[C@H](CO)[C@@H](O)[C@H](O)[C@@H]2O)c([N+](=O)[O-])c1; assay: as §2
[5] = substrate: O=[N+]([O-])c1ccc(O[C@H]2O[C@H](CO)[C@@H](O)[C@H](O)[C@@H]2O)cc1; assay: as §2
[6] = substrate: OC[C@H]1O[C@H](O[C@H]2[C@@H](O)[C@H](O)[C@@H](CO)O[C@@H]2O)[C@@H](O)[C@@H](O)[C@@H]1O; assay: (§3) Activity of Bacteroides thetaiotaomicron GH92 alpha-mannosidase 3990 S86A mutant assessed as mannose release after 16 hrs by HPLC relative to wild type enzyme
[7] = substrate: O=[N+]([O-])c1ccc(O[C@H]2O[C@H](CO)[C@@H](O)[C@H](O)[C@@H]2O)cc1; assay: as §3
[8] = substrate: OC[C@H]1O[C@H](O[C@H]2[C@@H](O)[C@H](O)[C@@H](CO)O[C@@H]2O)[C@@H](O)[C@@H](O)[C@@H]1O; assay: (§4) Ratio of Kcat to Km for Bacteroides thetaiotaomicron GH92 alpha-mannosidase 3990 S86A mutant assessed as mannose release after 16 hrs by HPLC relative to wild type enzyme
[9] = substrate: O=[N+]([O-])c1ccc(O[C@H]2O[C@H](CO)[C@@H](O)[C@H](O)[C@@H]2O)c([N+](=O)[O-])c1; assay: as §4
[10] = substrate: O=[N+]([O-])c1ccc(O[C@H]2O[C@H](CO)[C@@H](O)[C@H](O)[C@@H]2O)cc1; assay: as §4
[11] = substrate: OC[C@H]1O[C@H](O[C@H]2[C@@H](O)[C@H](O)[C@@H](CO)O[C@@H]2O)[C@@H](O)[C@@H](O)[C@@H]1O; assay: (§5) Activity of Bacteroides thetaiotaomicron GH92 alpha-mannosidase 3990 E533A mutant assessed as as mannose release after 16 hrs by HPLC relative to wild type enzyme
[12] = substrate: O=[N+]([O-])c1ccc(O[C@H]2O[C@H](CO)[C@@H](O)[C@H](O)[C@@H]2O)cc1; assay: as §5
[13] = substrate: OC[C@H]1O[C@H](O[C@H]2[C@@H](O)[C@H](O)[C@@H](CO)O[C@@H]2O)[C@@H](O)[C@@H](O)[C@@H]1O; assay: (§6) Ratio of Kcat to Km for Bacteroides thetaiotaomicron GH92 alpha-mannosidase 3990 E533A mutant assessed as as mannose release after 16 hrs by HPLC relative to wild type enzyme
[14] = substrate: O=[N+]([O-])c1ccc(O[C@H]2O[C@H](CO)[C@@H](O)[C@H](O)[C@@H]2O)c([N+](=O)[O-])c1; assay: as §6
[15] = substrate: O=[N+]([O-])c1ccc(O[C@H]2O[C@H](CO)[C@@H](O)[C@H](O)[C@@H]2O)cc1; assay: as §6

B1: Alpha-1,2-mannosidase (BT_3990) (Bacteroides thetaiotaomicron), Q8A0N1 N601A (protein)
chain: MKRLLLIACILNCTLLSQAKDWTQYVNPLMGSQSTFELSTGNTYPAIARPWGMNFWTPQTGKMGDGWQYTYTANKIRGFKQTHQPSPWINDYGQFSIMPIVGQPVFDEEKRASWFAHKGEVATPYYYKVYLAEHDIVTEMTPTERAVLFRFTFPENDHSYVVVDAFDKGSYIKIIPEENKIIGYTTRNSGGVPENFKNYFIIEFDKPFTYKATVENGNLQENVAEQTTDHAGAIIGFKTRKGEQVNARIASSFISFEQAAANMNELGKDNIEQLAQKGKDAWNQVLGKIEVEGGNLDQYRTFYSCLYRSLLFPRKFYELDANGQPIHYSPYNGQVLPGYMFTDTGFWDTFRCLFPLLNLMYPSVNKEMQEGLINTYLESGFFPEWASPGHRGCMVGNNSASILVDAYMKGVKVDDIKTLYEGLIHGTENVHPEVSSTGRLGYEYYNKLGYVPYDVKINENAARTLEYAYDDWCIYRLAKELKRPKKEISLFAKRAMNYKNLFDKESKLMRGRNEDGTFQSPFSPLKWGDAFTEGNSWHYTWSVFHDPQGLIDLMGGKEMFVTMMDSVFAVPPIFDDSYYGQVIHEIREMTVMNMGNYAHGAQPIQHMIYLYDYAGQPWKAQYWLRQVMDRMYTPGPDGYCGDEDNGQTSAWYVFSALGFYPVCPGTDEYVMGTPLFKKATLHFENGNSLVIDAPNNSTENFYIDSMSFNGADHTKNYLRHEDLFKGGTIKVDMSNRPNLNRGTKEEDMPYSFSKE
[1]
  Km: 3.3 mM
  kcat: 0.85 s⁻¹
[2]
  Km: 9.7 mM
  kcat: 0.00055 s⁻¹
[3]
  kcat/Km: 250 M⁻¹ s⁻¹
[4]
  kcat/Km: 6.17 M⁻¹ s⁻¹
[5]
  kcat/Km: 0.05 M⁻¹ s⁻¹

B2: Alpha-1,2-mannosidase (BT_3990) (Bacteroides thetaiotaomicron), Q8A0N1 S86A (protein)
chain: MKRLLLIACILNCTLLSQAKDWTQYVNPLMGSQSTFELSTGNTYPAIARPWGMNFWTPQTGKMGDGWQYTYTANKIRGFKQTHQPAPWINDYGQFSIMPIVGQPVFDEEKRASWFAHKGEVATPYYYKVYLAEHDIVTEMTPTERAVLFRFTFPENDHSYVVVDAFDKGSYIKIIPEENKIIGYTTRNSGGVPENFKNYFIIEFDKPFTYKATVENGNLQENVAEQTTDHAGAIIGFKTRKGEQVNARIASSFISFEQAAANMNELGKDNIEQLAQKGKDAWNQVLGKIEVEGGNLDQYRTFYSCLYRSLLFPRKFYELDANGQPIHYSPYNGQVLPGYMFTDTGFWDTFRCLFPLLNLMYPSVNKEMQEGLINTYLESGFFPEWASPGHRGCMVGNNSASILVDAYMKGVKVDDIKTLYEGLIHGTENVHPEVSSTGRLGYEYYNKLGYVPYDVKINENAARTLEYAYDDWCIYRLAKELKRPKKEISLFAKRAMNYKNLFDKESKLMRGRNEDGTFQSPFSPLKWGDAFTEGNSWHYTWSVFHDPQGLIDLMGGKEMFVTMMDSVFAVPPIFDDSYYGQVIHEIREMTVMNMGNYAHGNQPIQHMIYLYDYAGQPWKAQYWLRQVMDRMYTPGPDGYCGDEDNGQTSAWYVFSALGFYPVCPGTDEYVMGTPLFKKATLHFENGNSLVIDAPNNSTENFYIDSMSFNGADHTKNYLRHEDLFKGGTIKVDMSNRPNLNRGTKEEDMPYSFSKE
[6]
  Km: 3.2 mM
  kcat: 2 s⁻¹
[7]
  Km: 8.5 mM
  kcat: 0.00667 s⁻¹
[8]
  kcat/Km: 6330 M⁻¹ s⁻¹
[9]
  kcat/Km: 51.7 M⁻¹ s⁻¹
[10]
  kcat/Km: 0.783 M⁻¹ s⁻¹

B3: Alpha-1,2-mannosidase (BT_3990) (Bacteroides thetaiotaomicron), Q8A0N1 E533A (protein)
chain: MKRLLLIACILNCTLLSQAKDWTQYVNPLMGSQSTFELSTGNTYPAIARPWGMNFWTPQTGKMGDGWQYTYTANKIRGFKQTHQPSPWINDYGQFSIMPIVGQPVFDEEKRASWFAHKGEVATPYYYKVYLAEHDIVTEMTPTERAVLFRFTFPENDHSYVVVDAFDKGSYIKIIPEENKIIGYTTRNSGGVPENFKNYFIIEFDKPFTYKATVENGNLQENVAEQTTDHAGAIIGFKTRKGEQVNARIASSFISFEQAAANMNELGKDNIEQLAQKGKDAWNQVLGKIEVEGGNLDQYRTFYSCLYRSLLFPRKFYELDANGQPIHYSPYNGQVLPGYMFTDTGFWDTFRCLFPLLNLMYPSVNKEMQEGLINTYLESGFFPEWASPGHRGCMVGNNSASILVDAYMKGVKVDDIKTLYEGLIHGTENVHPEVSSTGRLGYEYYNKLGYVPYDVKINENAARTLEYAYDDWCIYRLAKELKRPKKEISLFAKRAMNYKNLFDKESKLMRGRNEDGTFQSPFSPLKWGDAFTAGNSWHYTWSVFHDPQGLIDLMGGKEMFVTMMDSVFAVPPIFDDSYYGQVIHEIREMTVMNMGNYAHGNQPIQHMIYLYDYAGQPWKAQYWLRQVMDRMYTPGPDGYCGDEDNGQTSAWYVFSALGFYPVCPGTDEYVMGTPLFKKATLHFENGNSLVIDAPNNSTENFYIDSMSFNGADHTKNYLRHEDLFKGGTIKVDMSNRPNLNRGTKEEDMPYSFSKE
[11]
  Km: 1.4 mM
  kcat: 0.00433 s⁻¹
[12]
  Km: 9.3 mM
  kcat: 0.00333 s⁻¹
[13]
  kcat/Km: 3 M⁻¹ s⁻¹
[14]
  kcat/Km: 6000 M⁻¹ s⁻¹
[15]
  kcat/Km: 0.35 M⁻¹ s⁻¹
